Data: PMC3495302, “The putative K^+ channel subunit AtKCO3 forms stable dimers in Arabidopsis” (Frontiers in Plant Science, 2012)

B1: γTIP (natural protein, UniProt P25818 1-251, looked up)
chain: MPIRNIAIGRPDEATRPDALKAALAEFISTLIFVVAGSGSGMAFNKLTENGATTPSGLVAAAVAHAFGLFVAVSVGANISGGHVNPAVTFGAFIGGNITLLRGILYWIAQLLGSVVACLILKFATGGLAVPAFGLSAGVGVLNAFVFEIVMTFGLVYTVYATAIDPKNGSLGTIAPIAIGFIVGANILAGGAFSGASMNPAVAFGPAVVSWTWTNHWVYWAGPLVGGGIAGLIYEVFFINTTHEQLPTTDY
notes: gamma-TIP, tonoplast aquaporin of Arabidopsis; detected with an antibody against its C-terminal nine amino acids; also called tonoplast aquaporin γTIP; source: endogenous, Arabidopsis leaf homogenate or microsomes
B2: AtKCO3::GFP (natural protein, Arabidopsis thaliana, UniProt Q9XFR0 1-260, looked up)
chain: MPMTPSEFKNRLLFGSLPRSSSDPTDLQFTEPNVPPSLFSLPEHNDDTATDMAPDQETEQSVSKSIARQALALLVVYLSLGVLIYWLTLDSDNAYQTHPVAVALYFFVVTFCGFLIVHFVVKIGWLDSFCFSVMMVTTVGFGDRAFNTWLGTFLAAVWLLVSTLAVARAFLFLADARADKRNRERAKKVLGESISISQFFAADIDNDGRLSLAEFAIYKLKQMEKITQEDFIQICNQFDKLDRTQSGRITLVDLTTATSV
notes: AtKCO3 of Arabidopsis thaliana, locus AT5G46360; fusion of about 60 kDa; Made with pBI-35S-10H-GFP-JFH1 (Hong et al., 1999); the vector's name may mean further tag residues (surmise); source: transgenic Arabidopsis (CaMV 35S promoter, p35S-KCO3::GFP), in leaf homogenate; not shown: GFP, C-terminal, kept
B3: AtKCO3 (natural protein, Arabidopsis thaliana, UniProt Q9XFR0 1-260, looked up)
chain: B2 chain
notes: AtKCO3, putative one-pore K+ channel subunit of Arabidopsis thaliana, locus AT5G46360; cDNA from seedlings of ecotype C24; calculated mass 29 kDa; The AtKCO3 cDNA without tag was put into pBinAR-Kan; also called wild-type protein; source: transgenic Arabidopsis (CaMV 35S promoter, p35S-KCO3), in leaf homogenate

Target: the molecule itself
Experiment: velocity sucrose gradient centrifugation; leaf homogenate in 200 mM NaCl, 0.2% Triton X-100, 50 mM Tris-Cl pH 7.8; linear 5-25% sucrose gradient with 150 mM NaCl, 0.1% Triton X-100, 200,000 x g, 25 h, 4°C; fractions by SDS-PAGE and western blot; mass markers in a further gradient

Protein	stoichiometry N
B1	4
B2	2
B3	2
